According to publication PMC8809517, “Cofactor-independent RNA editing by a synthetic S-type PPR protein”:

Key:
Test in all cases: high-throughput RNA pulldown from lysate on Ni-NTA beads; HRP: 50 mM Tris pH 8, 150 mM NaCl, 1 mM beta-mercaptoethanol, 50 ug/ml BSA, 3 ug/ml yeast RNA, 0.5% heparin; ITC and FP: Tris pH 8, 200 mM KCl, 5% glycerol; MST: 50 mM Tris pH 8, 200 mM NaCl, 1 mM DTT, BSA, heparin, 0.05% Tween 20
Conditions in all cases: tags: N-terminal His-eGFP
[1] = molecular target: T1, GFP-9S library array, motif 4 ND N98R (synthetic construct, N98R)
T1 chain: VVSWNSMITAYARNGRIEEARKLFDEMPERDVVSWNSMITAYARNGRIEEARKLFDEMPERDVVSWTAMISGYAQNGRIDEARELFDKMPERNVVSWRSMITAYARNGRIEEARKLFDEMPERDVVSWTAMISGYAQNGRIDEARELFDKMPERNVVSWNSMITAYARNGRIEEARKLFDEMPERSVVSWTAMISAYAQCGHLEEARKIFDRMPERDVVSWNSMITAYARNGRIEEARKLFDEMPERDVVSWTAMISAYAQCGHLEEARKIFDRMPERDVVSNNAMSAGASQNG

[2] = molecular target: T2, GFP-9S library array, motif 4 ND N98C;D124F (synthetic construct, N98C;D124F)
T2 chain: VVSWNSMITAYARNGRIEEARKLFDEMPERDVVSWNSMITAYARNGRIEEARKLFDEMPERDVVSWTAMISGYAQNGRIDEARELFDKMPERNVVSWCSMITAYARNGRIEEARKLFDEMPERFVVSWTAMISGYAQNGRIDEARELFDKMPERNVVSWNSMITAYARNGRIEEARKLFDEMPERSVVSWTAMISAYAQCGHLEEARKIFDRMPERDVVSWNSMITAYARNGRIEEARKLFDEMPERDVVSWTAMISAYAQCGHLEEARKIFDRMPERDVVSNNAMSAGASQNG

[3] = molecular target: T3, GFP-9S library array, motif 4 ND N98D;D124R (synthetic construct, N98D;D124R)
T3 chain: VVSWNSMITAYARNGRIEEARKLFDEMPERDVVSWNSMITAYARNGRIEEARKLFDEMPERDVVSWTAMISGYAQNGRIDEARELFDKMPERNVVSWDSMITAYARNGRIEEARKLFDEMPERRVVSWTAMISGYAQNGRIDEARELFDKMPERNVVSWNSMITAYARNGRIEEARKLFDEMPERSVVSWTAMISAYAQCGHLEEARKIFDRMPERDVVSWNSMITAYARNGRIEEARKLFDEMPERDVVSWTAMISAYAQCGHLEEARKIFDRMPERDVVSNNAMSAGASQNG

[4] = molecular target: T4, GFP-9S library array, motif 4 ND N98V;D124E (synthetic construct, N98V;D124E)
T4 chain: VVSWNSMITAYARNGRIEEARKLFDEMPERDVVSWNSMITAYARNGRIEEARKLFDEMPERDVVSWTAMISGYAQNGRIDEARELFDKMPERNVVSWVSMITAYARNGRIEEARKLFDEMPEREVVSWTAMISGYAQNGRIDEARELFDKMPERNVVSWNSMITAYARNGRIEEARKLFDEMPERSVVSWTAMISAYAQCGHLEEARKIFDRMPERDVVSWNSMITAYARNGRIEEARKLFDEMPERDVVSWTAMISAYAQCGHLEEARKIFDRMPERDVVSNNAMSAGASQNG

[5] = molecular target: T5, GFP-9S library array, motif 4 ND N98I;D124R (synthetic construct, N98I;D124R)
T5 chain: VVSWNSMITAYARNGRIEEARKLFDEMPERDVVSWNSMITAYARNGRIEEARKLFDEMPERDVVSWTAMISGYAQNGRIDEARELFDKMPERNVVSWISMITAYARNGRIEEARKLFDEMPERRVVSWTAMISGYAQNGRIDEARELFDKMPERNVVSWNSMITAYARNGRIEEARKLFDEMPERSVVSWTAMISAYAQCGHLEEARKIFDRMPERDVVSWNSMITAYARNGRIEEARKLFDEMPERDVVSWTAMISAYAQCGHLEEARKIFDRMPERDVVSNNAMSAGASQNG

Binder: AUUAUACGUGA (ssRNA) [IR-rpoA-U]
- Kd ([1]; label: 5' IRDye 800CW): 428 nM
- Kd ([2]; label: 5' IRDye 800CW): 317 nM
- Kd ([3]; label: 5' IRDye 800CW): 282 nM
- Kd ([4]; label: 5' IRDye 800CW): 244 nM
- Kd ([5]; label: 5' IRDye 800CW): 113 nM

Binder: AUUAAACGUGA (ssRNA) [IR-rpoA-A]
- Kd ([1]; label: 5' IRDye 800CW): 645 nM
- Kd ([2]; label: 5' IRDye 800CW): 203 nM
- Kd ([3]; label: 5' IRDye 800CW): 326 nM
- Kd ([4]; label: 5' IRDye 800CW): 168 nM
- Kd ([5]; label: 5' IRDye 800CW): 168 nM

Binder: AUUAGACGUGA (ssRNA) [Cy5-rpoA-G]
- Kd ([1]; label: 5' Cy5): 253 nM
- Kd ([2]; label: 5' Cy5): 100 nM
- Kd ([3]; label: 5' Cy5): 155 nM
- Kd ([4]; label: 5' Cy5): 167 nM
- Kd ([5]; label: 5' Cy5): 97.3 nM

Binder: AUUACACGUGA (ssRNA) [Cy5-rpoA]
- Kd ([1]; label: 5' Cy5): 207 nM
- Kd ([2]; label: 5' Cy5): 126 nM
- Kd ([3]; label: 5' Cy5): 154 nM
- Kd ([4]; label: 5' Cy5): 287 nM
- Kd ([5]; label: 5' Cy5): 86.4 nM
